Measured values reported in patent US20140227255A1 (Hoffmann-La Roche, published 2014).
Changes are numbered by the printed parent chain.

Molecular target: T1, Soluble human HER3 extracellular domain fused to Streptavidin Binding Protein (SBP) (human, UniProt P21860 20-643)
T1 construct: Order of the parts follows the printed name SBP-HER3 and is not otherwise stated; Used as HEK293 supernatant captured on streptavidin plates; also called SBP-HER3
Assay: ELISA, SBP-HER3 ECD captured on streptavidin plate; antibody concentration read from HER3 binding
Protocol: Soluble human HER3 extracellular domain fused to Streptavidin Binding Protein (SBP) was captured on a sreptavidine plate. […] For the standard coating, SBP-HER3 containing HEK293 supernatant was diluted (between 1:15 and 1:40) and incubated overnight at 2-80 C (25 μl per well). Intensive washing of the microtiter plate is necessary to remove remaining unbound SBP-HER3.
Antibodies according to the invention antibody were tested either undiluted or using a 12-step-dilution. 12.5 μl per well of each sample was incubated for 90 min at room temperature.

B1: Mab 205.10.1 (antibody, V domains shown)
VH: QVQLVQSGAEVKKPGASVKVSCKASGYTFRSSYISWVRQAPGQGLEWMGWIYAGTGSPSYNQKLQGRVTMTTDTSTSTAYMELRSLRSDDTAVYYCARHRDYYSNSLTYWGQGTLVTVSS
VL: DIVMTQSPDSLAVSLGERATINCKSSQSLLNSGNQKNYLTWYQQKPGQPPKLLIYWASTRESGVPDRFSGSGSGTDFTLTISSLQAEDVAVYYCQSDYSYPYTFGQGTKLEIK
notes: Humanized anti-HER3 antibody; Only variable domains are tied to it
  hu_HER3-ECD-ELISA c(µg/ml): 583 µg/mL

B2: Mab 205.10.3 (antibody, V domains shown)
VH: B1 VH
VL: B1 VL with A90S, V91I
notes: as for B1
  hu_HER3-ECD-ELISA c(µg/ml): 505 µg/mL
